Reference: paper PMC8495968, “Towards optimizing peptide-based inhibitors of protein–protein interactions: predictive saturation variation scanning (PreSaVS)” (RSC Chemical Biology, 2021)

What was measured:
[1] = target: MCL-1 (Homo sapiens), Q07820; test: ITC; details: modification not given
[2] = target: MCL-1 (Homo sapiens), Q07820; test: fluorescence anisotropy competition; details: modification not given

Sequence of MCL-1 (Homo sapiens), Q07820 (Q07820 whole entry): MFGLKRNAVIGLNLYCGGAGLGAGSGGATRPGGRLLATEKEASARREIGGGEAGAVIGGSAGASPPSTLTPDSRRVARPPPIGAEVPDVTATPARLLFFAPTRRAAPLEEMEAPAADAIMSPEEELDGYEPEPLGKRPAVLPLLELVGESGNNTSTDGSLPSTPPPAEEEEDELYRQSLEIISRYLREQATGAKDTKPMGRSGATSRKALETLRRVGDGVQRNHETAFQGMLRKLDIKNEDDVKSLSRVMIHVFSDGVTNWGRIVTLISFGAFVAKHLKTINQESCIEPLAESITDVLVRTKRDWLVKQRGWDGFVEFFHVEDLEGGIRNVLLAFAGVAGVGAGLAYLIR

Kd [1] [nM]	IC50 [2] [nM]	Binder
1700	2700	CAQFRRIGDKVNLRQKLLN [NOXA75–93 L78F 75-93, Q9JM54]
800	> 20000	CAQLRRIGDKFNLRQKLLN [NOXA75–93 V85F 75-93, Q9JM54]
2400	2200	CAQWRRIGDKVNLRQKLLN [NOXA75–93 L78W 75-93, Q9JM54]
–	> 100000	CAQYRRIGDKVNLRQKLLN [NOXA75–93 L78Y 75-93, Q9JM54]
